From patent US20220363763A1 (ABL BIO, published 2022)

How the values were obtained:
[1] = biological target: T1, human LAG3 (construct not stated) (human, UniProt P18627 23-450, limits assumed); test: BLI Octet Red 96, affinity ranking
T1 construct: also called human LAG3 protein; antigen
T1 sequence (looked up): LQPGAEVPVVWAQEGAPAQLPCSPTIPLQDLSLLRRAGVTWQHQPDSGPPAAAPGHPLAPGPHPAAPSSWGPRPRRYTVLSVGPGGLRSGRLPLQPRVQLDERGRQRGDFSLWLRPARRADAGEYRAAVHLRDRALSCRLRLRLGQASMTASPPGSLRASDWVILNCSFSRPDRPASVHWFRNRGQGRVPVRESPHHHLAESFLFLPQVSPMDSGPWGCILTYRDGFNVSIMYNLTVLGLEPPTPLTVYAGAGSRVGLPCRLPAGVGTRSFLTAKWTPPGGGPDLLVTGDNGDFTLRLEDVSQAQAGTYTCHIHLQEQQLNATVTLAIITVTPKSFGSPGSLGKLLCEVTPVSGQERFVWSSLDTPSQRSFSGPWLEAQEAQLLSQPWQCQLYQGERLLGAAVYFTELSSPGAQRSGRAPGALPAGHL

[2] = biological target: T2, human LAG3 on cells (human, UniProt P18627 23-525); test: flow cytometry on activated CD4 T cells
T2 construct: whole, on cells; also called Jurkat-LAG3
T2 sequence (looked up): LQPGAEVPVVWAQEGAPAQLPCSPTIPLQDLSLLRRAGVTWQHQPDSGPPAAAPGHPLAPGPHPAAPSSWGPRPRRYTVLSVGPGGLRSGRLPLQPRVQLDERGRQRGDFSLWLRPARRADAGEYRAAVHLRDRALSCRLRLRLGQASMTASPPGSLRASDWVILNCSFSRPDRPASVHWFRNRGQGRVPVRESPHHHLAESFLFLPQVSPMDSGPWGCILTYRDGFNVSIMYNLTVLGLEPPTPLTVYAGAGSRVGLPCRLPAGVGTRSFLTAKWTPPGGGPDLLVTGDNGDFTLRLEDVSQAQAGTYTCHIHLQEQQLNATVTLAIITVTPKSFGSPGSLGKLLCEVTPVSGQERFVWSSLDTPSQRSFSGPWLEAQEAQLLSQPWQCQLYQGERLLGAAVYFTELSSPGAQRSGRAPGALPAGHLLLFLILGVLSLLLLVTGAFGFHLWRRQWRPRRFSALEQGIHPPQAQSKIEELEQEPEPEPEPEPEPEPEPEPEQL
Procedure: (§1) To further confirm affinity matured anti-LAG-3 antibodies could bind to cell-derived human LAG3, both inducible hLAG3 expressed Jurkat cells and activated PBMCs were used to test the binding capability of B3807b and B3810. In brief, Jurkat cells were resuspended in FACS buffer. Anti-LAG3 antibodies and isotype control were 4-fold serially diluted in FACS buffer with a dose ranging from 20 nM to 30 pM. The serially diluted antibodies were added to the cell suspension and incubated for 30 minutes on ice. Then after removal of unbound antibodies, cells were stained with anti-human IgG conjugated with Alexa Fluor 633 (Thermo, A21091). Fluorescence measurement was acquired on FACSCelesta flow cytometer and analyzed in Flowjo to determine the mean fluorescence intensities (MFI). To test anti-LAG3 antibodies' ability of binding to native human LAG3, PBMCs from health donor were stimulated with anti-CD3 (BD, 555336) and anti-CD28 (BD, 555725) both at a concentration of 1 ug/ml. Following 3 days' stimulation, cells were harvested and incubated with anti-LAG3 antibodies for 30 mins on ice. The cells were stained with anti-human CD4 and anti-human IgG. Analysis of antibodies binding to CD4+ cells were carried out on FACSCelesta flow cytometry. […] FIG. 31 is a graph showing the binding curve of anti-LAG3 antibodies.

[3] = biological target: T3, recombinant human LAG-3-ECD-human IgG1 fusion protein (human, UniProt P18627 23-450, biotin-labeled in the MHC class II blocking assays); test: ELISA as Example 2.2, coated human LAG3 ECD-Fc
T3 construct: extracellular domain; also called LAG-3-huFc; LAG-3-ECD-huFc; not shown: human IgG1 Fc
T3 sequence (looked up): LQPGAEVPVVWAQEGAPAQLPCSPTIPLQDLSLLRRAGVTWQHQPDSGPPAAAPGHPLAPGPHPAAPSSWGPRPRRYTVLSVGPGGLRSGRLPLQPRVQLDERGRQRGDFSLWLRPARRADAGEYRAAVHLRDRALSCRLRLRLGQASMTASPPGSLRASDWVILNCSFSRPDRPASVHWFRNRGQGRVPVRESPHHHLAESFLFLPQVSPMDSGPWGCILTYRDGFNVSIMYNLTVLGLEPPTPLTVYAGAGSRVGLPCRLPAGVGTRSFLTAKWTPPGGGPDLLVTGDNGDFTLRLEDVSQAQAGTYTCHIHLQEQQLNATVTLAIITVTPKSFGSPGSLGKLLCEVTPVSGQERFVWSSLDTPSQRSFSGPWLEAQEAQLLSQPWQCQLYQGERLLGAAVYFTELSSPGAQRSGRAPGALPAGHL
Procedure: To evaluate the capability of the anti-LAG-3 antibodies to bind to human, rat, and mouse LAG3 the antibodies identified in Example 2.1 were evaluated for their binding property through ELISA. The human, rat and mouse LAG3 ECD-Fc protein were coated to ELISA plate at 1 μg/ml with 100 μl/well. Antibodies from Example 1 were serially diluted with ELISA diluent buffer. […] The resulting plates were washed and then labeled with anti-human IgG(Fab)-HRP antibody. The S31 can only bind to human LAG3. The S27 and T99 can bind to human LAG3 and rat/mouse LAG3 with lower potency. The S119 antibody can bind to human, rat and mouse LAG3 at high potency (FIGS. 22A-22D).

[4] = biological target: T4, recombinant his-tag human LAG3-ECD protein (human, UniProt P18627 23-450); test: SPR Biacore T200, capture method as Example 2.7
T4 construct: extracellular domain; not shown: his tag
T4 sequence (looked up): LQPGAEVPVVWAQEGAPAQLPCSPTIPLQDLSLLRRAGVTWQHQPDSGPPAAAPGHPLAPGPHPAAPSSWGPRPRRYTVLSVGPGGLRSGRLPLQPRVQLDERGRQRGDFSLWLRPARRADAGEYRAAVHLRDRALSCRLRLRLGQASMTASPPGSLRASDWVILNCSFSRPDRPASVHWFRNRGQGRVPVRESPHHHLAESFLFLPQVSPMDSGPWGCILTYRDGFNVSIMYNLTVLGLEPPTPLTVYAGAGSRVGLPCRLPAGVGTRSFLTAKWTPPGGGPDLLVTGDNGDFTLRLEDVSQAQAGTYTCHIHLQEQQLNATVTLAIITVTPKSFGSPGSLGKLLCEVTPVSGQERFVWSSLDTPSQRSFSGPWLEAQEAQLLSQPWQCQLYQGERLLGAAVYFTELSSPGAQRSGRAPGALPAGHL

[5] = biological target: T2, human LAG3 on cells; test: flow cytometry on hLAG3-expressing Jurkat cells
Procedure: as §1

[6] = biological target: T1, human LAG3 (construct not stated); test: BLI Octet Red 96, full kinetics, antigen 50-3.125 nM
Procedure: The binding affinity was calculated by software in Octet® RED96 System.

[7] = biological target: T2, human LAG3 on cells; test: flow cytometry (MFI) on Jurkat-LAG3 cells, upper panel; EC50 table has no unit, x axis Concentration (nM); Table 31 of the text prints the rounded 1.2
Procedure: as §1

[8] = biological target: T2, human LAG3 on cells; test: flow cytometry (MFI) on activated CD4 T cells, lower panel; EC50 table has no unit, x axis Concentration (nM); Table 31 of the text prints the rounded 0.77
Procedure: as §1

B1: 147H-13 (antibody, V domains shown)
VH: EVQLVQSGAEVKKPGASVKVSCKASGYTFTNYWLGWIKQAPGQGLEWIGDIYPGGDYINYNEKFKGKATLTADTSISTAYMELSRLRSDDTAVYYCARPNLPGDYWGQGTTVTVSS
VL: DIVMTQSPLSLPVTPGEPASISCRSSKSLLHSNGITYLYWYLQKPGQSPQLLIYQVSNLASGVPDRFSGSGSGTDFTLKISRVEAEDVGVYYCAQNLELPWTFGGGTKVEIK
notes: Common light chain; human gamma 1 / kappa constant domains; also called 147H4-13
With B1 the Kd [1] was 21.6 nM, the koff [1] was 0.00234 s⁻¹ and the kon [1] was 108000 M⁻¹ s⁻¹. It also gave an EC50 [2] of 0.77 nM, an EC50 [3] of 6.5 nM and a Kd [4] of 14 nM. The koff [4] was 0.03 s⁻¹, the kon [4] was 2.2e+06 M⁻¹ s⁻¹ and the EC50 [5] was 1.2 nM. The Kd [6] was 18.2 nM, the koff [6] was 0.0019 s⁻¹ and the kon [6] was 104000 M⁻¹ s⁻¹. The EC50 [7] was 1.23 nM and the EC50 [8] was 0.767 nM.
